Assays:
[1] = biological target: T1, full length human 5T4 (SEQ ID NO: 1) on cells (human, UniProt Q13641 32-420); assay: flow cytometry, MDA-MB-231 cells, PE secondary [III)F]
T1 construct: Uniprot Q13641; residues 1-31 are the signal peptide; Used both for transfected HEK-293 cells and for 5T4-expressing human tumor cell lines
T1 sequence: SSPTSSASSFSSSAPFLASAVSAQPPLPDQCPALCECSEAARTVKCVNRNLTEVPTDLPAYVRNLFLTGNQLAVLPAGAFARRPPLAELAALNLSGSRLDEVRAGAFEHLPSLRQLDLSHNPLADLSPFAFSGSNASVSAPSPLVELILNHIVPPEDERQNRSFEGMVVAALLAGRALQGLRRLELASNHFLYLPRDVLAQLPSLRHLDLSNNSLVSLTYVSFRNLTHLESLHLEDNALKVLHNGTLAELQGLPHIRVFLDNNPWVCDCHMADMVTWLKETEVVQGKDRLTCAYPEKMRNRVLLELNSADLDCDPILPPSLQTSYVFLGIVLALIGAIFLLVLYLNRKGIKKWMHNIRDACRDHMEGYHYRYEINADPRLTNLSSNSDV

[2] = biological target: T2, full length cynomolgus monkey 5T4 on transfected HEK-293 cells (cynomolgus monkey, UniProt Q4R8Y9 35-420); assay: flow cytometry, HEK-293 cells transfected with cynomolgus monkey 5T4, PE secondary [II)G]
T2 construct: Uniprot Q4R8Y9; residues 1-34 are the signal peptide; also called cynomolgus 5T4
T2 sequence: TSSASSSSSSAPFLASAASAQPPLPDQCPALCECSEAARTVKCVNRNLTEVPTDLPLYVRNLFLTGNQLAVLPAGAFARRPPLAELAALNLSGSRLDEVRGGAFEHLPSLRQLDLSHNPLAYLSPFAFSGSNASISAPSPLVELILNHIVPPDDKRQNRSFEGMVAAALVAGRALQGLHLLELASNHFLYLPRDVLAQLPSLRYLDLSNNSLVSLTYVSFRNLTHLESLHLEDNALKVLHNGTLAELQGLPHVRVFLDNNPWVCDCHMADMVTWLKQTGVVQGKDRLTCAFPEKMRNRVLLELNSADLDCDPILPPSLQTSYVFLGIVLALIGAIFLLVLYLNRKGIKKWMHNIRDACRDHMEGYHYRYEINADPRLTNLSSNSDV

[3] = biological target: T3, human 5T4ECDHis (mature protein of SEQ ID NO: 99) (human, UniProt Q13641 32-355); assay: BLI cross-block; competitor (immobilised): IgG1-5T4-076-FEAR
T3 construct: ECD of human 5T4 (aa 1-355 of Uniprot Q13641) with C-terminal His tag; residues 1-31 are the signal peptide; also called ECD of human 5T4 with a C-terminal His tag
T3 sequence: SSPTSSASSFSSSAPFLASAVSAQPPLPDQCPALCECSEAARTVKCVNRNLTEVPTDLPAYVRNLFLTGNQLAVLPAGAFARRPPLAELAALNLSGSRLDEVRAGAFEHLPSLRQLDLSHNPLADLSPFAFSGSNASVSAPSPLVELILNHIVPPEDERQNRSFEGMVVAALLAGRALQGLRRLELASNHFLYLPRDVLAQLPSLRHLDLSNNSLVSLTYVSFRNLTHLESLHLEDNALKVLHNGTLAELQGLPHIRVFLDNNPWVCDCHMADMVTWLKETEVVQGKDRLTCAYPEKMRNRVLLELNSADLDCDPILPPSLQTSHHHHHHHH

[4] = biological target: T3, human 5T4ECDHis (mature protein of SEQ …); assay: BLI cross-block; competitor (immobilised): IgG1-5T4-106-FEAR
[5] = biological target: T3, human 5T4ECDHis (mature protein of SEQ …); assay: BLI cross-block; competitor (immobilised): IgG1-5T4-085-FEAR
[6] = biological target: T3, human 5T4ECDHis (mature protein of SEQ …); assay: BLI cross-block; competitor (immobilised): IgG1-5T4-A3-F405L
[7] = biological target: T4, recombinant cynomolgus monkey 5T4 protein (Cusabio; cat. no. CSB-MP024093MOV) (cynomolgus monkey, UniProt Q4R8Y9 35-355); assay: BLI, antibody on anti-human IgG Fc Capture biosensor, antigen in solution; 50 s dissociation window
T4 construct: extracellular domain; Bought protein; also called cynomolgus 5T4; cynomolgus monkey 5T4 extracellular domain
T4 sequence (looked up): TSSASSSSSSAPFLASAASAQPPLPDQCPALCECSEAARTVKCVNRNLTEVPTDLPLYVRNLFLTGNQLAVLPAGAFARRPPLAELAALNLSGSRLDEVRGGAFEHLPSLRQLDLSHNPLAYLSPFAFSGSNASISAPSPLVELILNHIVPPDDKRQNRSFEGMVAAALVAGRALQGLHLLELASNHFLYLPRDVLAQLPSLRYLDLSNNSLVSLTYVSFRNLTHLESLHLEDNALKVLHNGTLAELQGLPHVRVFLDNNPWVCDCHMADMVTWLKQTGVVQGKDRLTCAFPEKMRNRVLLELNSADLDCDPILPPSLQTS

[8] = biological target: T3, human 5T4ECDHis (mature protein of SEQ …); assay: BLI cross-block; competitor (immobilised): IgG1-5T4-H8-FEAR
[9] = biological target: T3, human 5T4ECDHis (mature protein of SEQ …); assay: BLI cross-block; competitor (immobilised): IgG1-5T4-059-FEAR
[10] = biological target: T3, human 5T4ECDHis (mature protein of SEQ …); assay: BLI, antibody on anti-human IgG Fc Capture biosensor, antigen in solution; 50 s dissociation window
[11] = biological target: T3, human 5T4ECDHis (mature protein of SEQ …); assay: BLI cross-block; competitor (immobilised): IgG1-5T4-A1-F405L
[12] = biological target: T1, full length human 5T4 (SEQ ID NO: 1) on …; assay: flow cytometry, HEK-293 cells transfected with human 5T4, PE secondary [II)G]
[13] = biological target: T3, human 5T4ECDHis (mature protein of SEQ …); assay: BLI cross-block; competitor (immobilised): IgG1-5T4-127-FEAR
[14] = biological target: T3, human 5T4ECDHis (mature protein of SEQ …); assay: BLI cross-block; competitor (immobilised): IgG1-5T4-226-FEAR
[15] = biological target: T3, human 5T4ECDHis (mature protein of SEQ …); assay: BLI cross-block; competitor (immobilised): IgG1-5T4-207-FEAR
[16] = biological target: T5, human 5T4 with P326 mutated to alanine, on HEK293 cells (human, UniProt Q13641 32-420); assay: alanine scanning, flow cytometry on HEK293 cells, normalised to bsIgG1-5T4-A1-F405Lxb12-FEAR-FITC
T5 sequence: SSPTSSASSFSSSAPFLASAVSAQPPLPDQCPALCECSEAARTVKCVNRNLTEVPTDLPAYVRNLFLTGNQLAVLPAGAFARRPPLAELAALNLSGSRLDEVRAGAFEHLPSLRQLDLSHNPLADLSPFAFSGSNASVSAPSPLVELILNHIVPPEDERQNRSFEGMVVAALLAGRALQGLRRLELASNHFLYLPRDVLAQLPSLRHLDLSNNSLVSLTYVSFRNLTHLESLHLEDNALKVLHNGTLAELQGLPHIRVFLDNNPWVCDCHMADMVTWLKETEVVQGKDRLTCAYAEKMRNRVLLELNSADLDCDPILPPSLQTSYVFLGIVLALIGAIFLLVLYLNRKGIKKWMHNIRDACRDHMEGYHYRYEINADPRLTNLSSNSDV

[17] = biological target: T6, human 5T4 with L281 mutated to alanine, on HEK293 cells (human, UniProt Q13641 32-420); assay: as above
T6 sequence: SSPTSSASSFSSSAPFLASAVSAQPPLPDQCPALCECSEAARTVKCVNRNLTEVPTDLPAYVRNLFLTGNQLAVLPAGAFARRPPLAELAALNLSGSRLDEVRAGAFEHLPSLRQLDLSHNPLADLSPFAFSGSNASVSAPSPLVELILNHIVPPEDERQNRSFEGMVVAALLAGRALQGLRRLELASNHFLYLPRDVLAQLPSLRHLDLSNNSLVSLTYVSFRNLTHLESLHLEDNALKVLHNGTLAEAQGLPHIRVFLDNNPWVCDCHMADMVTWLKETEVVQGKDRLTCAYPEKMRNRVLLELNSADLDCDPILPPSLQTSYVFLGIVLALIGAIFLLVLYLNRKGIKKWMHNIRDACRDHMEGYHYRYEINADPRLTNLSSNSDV

[18] = biological target: T7, human 5T4 with L309 mutated to alanine, on HEK293 cells (human, UniProt Q13641 32-420); assay: as above
T7 sequence: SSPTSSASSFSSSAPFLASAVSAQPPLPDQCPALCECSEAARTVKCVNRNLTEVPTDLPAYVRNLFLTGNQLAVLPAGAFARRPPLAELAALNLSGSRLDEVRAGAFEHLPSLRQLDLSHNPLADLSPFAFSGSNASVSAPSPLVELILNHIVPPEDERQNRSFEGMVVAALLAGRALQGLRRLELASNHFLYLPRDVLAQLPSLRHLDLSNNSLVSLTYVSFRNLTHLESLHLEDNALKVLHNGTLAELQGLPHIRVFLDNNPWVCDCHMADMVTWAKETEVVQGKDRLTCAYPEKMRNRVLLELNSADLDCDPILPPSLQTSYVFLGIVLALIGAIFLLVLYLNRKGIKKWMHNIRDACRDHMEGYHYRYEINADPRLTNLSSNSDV

B1: IgG1-5T4-127-FEAR (antibody, V domains shown)
VH: EVQLLESRGGLVQPGGSLRLSCAASGFTFSSYAMSWVRQAPGKGLEWVSTISGSGGSTYYADSVKGRFTISRDNSKKTLYLQMNSLRAEDTAVYYCAKDWGSGSYPAEYFQHWGQGTLVTVSS
VL: EIVLTQSPATLSLSPGERATLSCRASQSVSSYLAWYQQKPGQAPRLLIYDASNRATGIPARFSGSGSGTDFTLTISSLEPEDFAVYYCQQRSNWLMYTFGQGTKLEIK
notes: Monospecific, bivalent human IgG1 kappa with L234F, L235E, D265A, K409R (FEAR)
EC50 (read off the curve) [1]: ~0.03 µg/mL | EC50 (read off the curve) [2]: ~0.02 µg/mL | corrected association response [3]: -0.02 nm | corrected association response [4]: -0.02 nm | corrected association response [5]: 0 nm | corrected association response [6]: 0.01 nm | Kd [7]: 41 nM | koff [7]: 0.015 s⁻¹ | kon [7]: 370000 M⁻¹ s⁻¹ | corrected association response [8]: -0.01 nm | corrected association response [9]: -0.1 nm | Kd [10]: 27 nM | koff [10]: 0.016 s⁻¹ | kon [10]: 580000 M⁻¹ s⁻¹ | corrected association response [11]: 0.87 nm | EC50 (read off the curve) [12]: ~0.03 µg/mL | corrected association response [13]: -0.01 nm | corrected association response [14]: 1.51 nm | corrected association response [15]: 1.29 nm

B2: bsIgG1-b12-FEALx5T4-226-FEAR-FITC (bispecific antibody, V domains shown)
VH 1: QVQLVQSGAEVKKPGASVKVSCQASGYRFSNFVIHWVRQAPGQRFEWMGWINPYNGNKEFSAKFQDRVTFTADTSANTAYMELRSLRSADTAVYYCARVGPYSWDDSPQDNYYMDVWGKGTTVIVSS
VL 1: EIVLTQSPGTLSLSPGERATFSCRSSHSIRSRRVAWYQHKPGQAPRLVIHGVSNRASGISDRFSGSGSGTDFTLTITRVEPEDFALYYCQVYGASSYTFGQGTKLERK
VH 2: QVQLQQWGAGLLKPSETLSLTCAVYGGSFSGYYWSWIRQPPGKGLEWIGEIDHSGSTNYNPSLKSRVTISVDTSKNQFSLKLSSVTAADTAVYYCAAWFGELWDYYYGMDVWGQGTTVTVSS
VL 2: EIVLTQSPATLSLSPGERATLSCRASQSVSSFLAWYQQKPGQAPRLLIYDASNRATGIPARFSGSGSGTDFTLTISSLEPEDFAVYYCQQRSNWPLTFGQGTRLEIK
notes: b12 arm IgG1 FEAL, 5T4 arm IgG1 FEAR
Z-score (fold change) of binding [16]: -1.67 | Z-score (fold change) of binding [17]: -1.65 | Z-score (fold change) of binding [18]: -1.63
